# B1: A199S/S227A/S287G/A328W/Y332G mutant mouse BChE (protein)
# chain: EEDFIITTKTGRVRGLSMPVLGGTVTAFLGIPYAQPPLGSLRFKKPQPLNKWPDIHNATQYANSCYQNIDQAFPGFQGSEMWNPNTNLSEDCLYLNVWIPVPKPKNATVMVWIYGGGFQTGTSSLPVYDGKFLARVERVIVVSMNYRVGALGFLAFPGNPDAPGNMGLFDQQLALQWVQRNIAAFGGNPKSITIFGESSGAASVSLHLLCPQSYPLFTRAILESGSANAPWAVKHPEEARNRTLTLAKFTGCSKENEMEMIKCLRSKDPQEILRNERFVLPSDSILGINFGPTVDGDFLTDMPHTLLQLGKVKKAQILVGVNKDEGTWFLVGGAPGFSKDNDSLITRKEFQEGLNMYFPGVSRLGKEAVLFYYVDWLGEQSPEVYRDALDDVIGDYNIICPALEFTKKFAELENNAFFYFFEHRSSKLPWPEWMGVMHGYEIEFVFGLPLGRRVNYTRAEEIFSRSIMKTWANFAKYGHPNGTQGNSTMWPVFTSTEQKYLTLNTEKSKIYSKLRAPQCQFWRLFFPKVLEMTGDIDETEQEWKAGFHRWSNYMMDWQNQFNDYTSKKESCTAL
# B2: purified human butyrylcholinesterase (wild-type human BChE) (protein)
# chain: EDDIIIATKNGKVRGMNLTVFGGTVTAFLGIPYAQPPLGRLRFKKPQSLTKWSDIWNATKYANSCCQNIDQSFPGFHGSEMWNPNTDLSEDCLYLNVWIPAPKPKNATVLIWIYGGGFQTGTSSLHVYDGKFLARVERVIVVSMNYRVGALGFLALPGNPEAPGNMGLFDQQLALQWVQKNIAAFGGNPKSVTLFGESAGAASVSLHLLSPGSHSLFTRAILQSGSFNAPWAVTSLYEARNRTLNLAKLTGCSRENETEIIKCLRNKDPQEILLNEAFVVPYGTPLSVNFGPTVDGDFLTDMPDILLELGQFKKTQILVGVNKDEGTAFLVYGAPGFSKDNNSIITRKEFQEGLKIFFPGVSEFGKESILFHYTDWVDDQRPENYREALGDVVGDYNFICPALEFTKKFSEWGNNAFFYYFEHRSSKLPWPEWMGVMHGYEIEFVFGLPLERRDNYTKAEEILSRSIVKRWANFAKYGNPNETQNNSTSWPVFKSTEQKYLTLNTESTRIMTKLRAQQCRFWTSFFPKVLEMTGNIDEAEWEWKAGFHRWNNYMMDWKNQFNDYTSKKESCVGL
# B3: A199S/F227A/S287G/A328W/Y332G mutant human BChE (protein)
# chain: EDDIIIATKNGKVRGMNLTVFGGTVTAFLGIPYAQPPLGRLRFKKPQSLTKWSDIWNATKYANSCCQNIDQSFPGFHGSEMWNPNTDLSEDCLYLNVWIPAPKPKNATVLIWIYGGGFQTGTSSLHVYDGKFLARVERVIVVSMNYRVGALGFLALPGNPEAPGNMGLFDQQLALQWVQKNIAAFGGNPKSVTLFGESSGAASVSLHLLSPGSHSLFTRAILQSGSANAPWAVTSLYEARNRTLNLAKLTGCSRENETEIIKCLRNKDPQEILLNEAFVVPYGTPLGVNFGPTVDGDFLTDMPDILLELGQFKKTQILVGVNKDEGTWFLVGGAPGFSKDNNSIITRKEFQEGLKIFFPGVSEFGKESILFHYTDWVDDQRPENYREALGDVVGDYNFICPALEFTKKFSEWGNNAFFYYFEHRSSKLPWPEWMGVMHGYEIEFVFGLPLERRDNYTKAEEILSRSIVKRWANFAKYGNPNETQNNSTSWPVFKSTEQKYLTLNTESTRIMTKLRAQQCRFWTSFFPKVLEMTGNIDEAEWEWKAGFHRWNNYMMDWKNQFNDYTSKKESCVGL
# Target: human acyl ghrelin, Q9UBU3
# Sequence (Q9UBU3 whole entry, looked up): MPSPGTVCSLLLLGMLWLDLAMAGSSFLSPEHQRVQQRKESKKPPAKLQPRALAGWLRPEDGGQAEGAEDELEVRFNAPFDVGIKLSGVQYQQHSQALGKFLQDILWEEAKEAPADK
Protein,"ghrelin hydrolyzing activity in vitro (human ghrelin immunoassay kit: decrease in acyl ghrelin, increase in deacyl ghrelin)",hydrolysis (deacylation) of acyl ghrelin in vitro; residual acyl ghrelin and desacyl ghrelin by immunoassay,time course of acyl ghrelin hydrolysis in vitro
B1,"exhibited enhanced activity (e.g., at least 20-fold more activity), comparable to that of wild type mouse BChE",–,–
B2,–,"Incubation of a sample containing acyl ghrelin with increasing amounts of human BChE resulted in a decrease in the amount of acyl ghrelin and an increase in the amount of the breakdown product, desacyl ghrelin",A linear hydrolysis rate was observed
B3,"exhibited modest activity, comparable to that of wild type human BChE",–,–
